One test addresses GFP-Caprin-1(356-386) (UniProt Q14444). Put plainly: ITC. The conditions noted are these: 25°C, 150 mM NaCl, 10 mM MgCl2.
Another test deals with GFP-USP10(1-28) (UniProt Q14694). Put plainly: ITC. The conditions noted are these: 25°C, 150 mM NaCl, 10 mM MgCl2.

On to G3BP1 NTF2-like domain (G3BP1-NTF2), for which the KD – broadly, the equilibrium constant for the complex coming apart – in the test with GFP-Caprin-1(356-386) (pH 5.6) is 1.4 μM (1.1 / 1.7); with GFP-Caprin-1(356-386) (pH 7.4), 4 ± 2 µM; with GFP-USP10(1-28) (pH 5.6), 0.5 μM (0.3 / 0.7); in the test with GFP-USP10(1-28) (pH 7.4), 1.5 ± 0.5 µM.

For the origin of these results see doi:10.1101/2021.02.05.429362.
